Measurements from patent US20220193237A1 (Bristol-Myers Squibb, published 2022).
Residue numbers refer to the chain shown, from its start. In names and notes the source's numbering stands.

What was measured:
monomeric human CTLA-4 [1] = molecular target: T1, monomeric human CTLA-4 (human, UniProt P16410 36-161, limits assumed); assay: SPR, captured Fab, pH 6.0 vs 7.4
T1 construct: Soluble monomeric analyte in SPR; also called huCTLA-4
T1 sequence: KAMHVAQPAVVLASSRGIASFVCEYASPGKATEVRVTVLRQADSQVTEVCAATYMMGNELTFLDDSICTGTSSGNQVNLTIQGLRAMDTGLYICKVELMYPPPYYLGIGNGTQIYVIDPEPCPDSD
Method: (§1) See Example 3. Antibodies were tested as monovalent Fab fragments to simplify analysis.
(§2) Monomeric human CTLA-4 was flowed as analyte with up to 2 μM top concentration. Between cycles, the capture surface was regenerated with 75 mM phosphoric acid. Experiments were run on a BIACORE® T200 instrument at 37° C. Running buffers were HEPES buffered saline for pH 7.4 experiments and Bis-Tris buffered saline for lower pH experiments. […] Double referenced sensorgrams were fitted to a 1:1 Langmuir binding model with mass transport to determine equilibrium dissociation constants (KD), as well as association (kₐ) and dissociation (kd) rate constants where appropriate.

monomeric human CTLA-4 [2] = molecular target: T1, monomeric human CTLA-4; assay: SPR, captured Fab, pH 7.4, second experiment
Method: as §1, §2

monomeric human CTLA-4 [3] = molecular target: T1, monomeric human CTLA-4; assay: SPR, captured Fab, pH 6.0 vs 7.4; remark: listed apart in the source
Method: (§3) Binding of selected variants to human CTLA-4 was determined essentially as described in Example 3. […] Nomenclature and sequences for these antibodies is provided at Tables 6 and 7, and in the sequence listing as summarized at Table 8.
as §2

monomeric human CTLA-4 [4] = molecular target: T1, monomeric human CTLA-4; assay: SPR, captured Fab, pH 7.4
Method: as §1, §2

monomeric human CTLA-4 [5] = molecular target: T1, monomeric human CTLA-4; assay: SPR, pH 6.0 and pH 7.5 (FIG. 6)
Method: Unless otherwise indicated, experiments were performed with a BIACORE® SPR surface plasmon resonance spectrometer (Biacore AB, Uppsala, Sweden). Antibodies were tested as monovalent Fab fragments to simplify analysis.
as §2

monomeric human CTLA-4 [6] = molecular target: T1, monomeric human CTLA-4; assay: SPR, captured Fab, pH 6.0
Method: as §1, §2

monomeric human CTLA-4 [7] = molecular target: T1, monomeric human CTLA-4; assay: SPR, captured Fab, pH 6.0, second experiment
Method: as §1, §2

monomeric human CTLA-4 [8] = molecular target: T1, monomeric human CTLA-4; assay: SPR, captured Fab, first experiment of Table 3
Method: as §1, §2

monomeric human CTLA-4 [9] = molecular target: T1, monomeric human CTLA-4; assay: SPR, captured Fab, pH 6.0; remark: listed apart in the source
Method: as §3, §2

monomeric human CTLA-4 [10] = molecular target: T1, monomeric human CTLA-4; assay: SPR, captured Fab, pH 7.4; remark: listed apart in the source
Method: as §3, §2

monomeric human CTLA-4 [11] = molecular target: T1, monomeric human CTLA-4; assay: SPR, captured Fab, second experiment of Table 3
Method: as §1, §2

monomeric human CTLA-4 [12] = molecular target: T1, monomeric human CTLA-4; assay: SPR, captured Fab, pH 6.0 vs 7.4, second experiment
Method: as §1, §2

monomeric cyno CTLA-4 = molecular target: T2, monomeric cyno CTLA-4 (cynomolgus macaque (Macaca fascicularis), UniProt G7PL88 36-161); assay: SPR, Fab, monomeric cyno CTLA-4 as analyte; KD (M, log axis 10^-9 to 10^-5) plotted against pH
T2 construct: also called CTLA-4 from the cynomolgus macaque Macaca fascicularis
T2 sequence: T1 sequence with S14N, I18T, L106M
Method: The pH dependence of binding of selected antibodies of the present invention to human CTLA-4 and cyno CTLA-4 was measured by surface plasmon resonance (SPR) spectroscopy, essentially as described in Example 3. Briefly, antibodies were studied as monovalent Fab fragments. Anti-human kappa polyclonal capture antibody (Southern Biotech, Ala. USA) was immobilized on a ethylenediamine-blocked CM4 sensor chip in a Biacore T200 surface plasmon resonance system. Fab fragments of selected antibodies of the present invention were then captured on one flow cell each. […] Running buffer was 20 mM BisTris, 150 mM NaCl, 0.05% Tween-20, 1 g/L BSA, at a pH ranging from 5.5 to 7.4 in 0.1-0.2 pH unit intervals (12 total). The surface was regenerated with 1/200 H₃PO₄ between cycles. […] Where required, the Rₘₐₓ was fixed by calculating expected binding based on capture level and apparent activity from other fits for the same Fab.

[13] = molecular target: T3, human CTLA-4 on 58 α-β-CTLA-4/CD3 ζ cells (human; mouse (mCD3ζ)); assay: cell-based or functional assay
[14] = molecular target: T3, human CTLA-4 on 58 α-β-CTLA-4/CD3 ζ …; assay: flow cytometry, non-fucosylated IgG1 on 58αβ-CTLA4/mCD3ζ cells, pH 6.2
Method: (§4) Antibodies were titrated from 100 μg/mL at a 1:4 dilution across 12 points in pH-specific buffers and incubated for 30-60 minutes. Buffers contained HBSS, 2% FBS^HI, 0.02% sodium azide, 2 mM EDTA, and sodium phosphate buffer (pH 5.4). Sodium phosphate buffer was added until desired pH was reached (7.2, 6.7, 6.2). Approximately 3e5 cells/well were tested for each cell line. […] Detection was done with a monovalent anti-hKappa secondary nanobody conjugated to Alexa647 and used at a dilution of 1:2000. Cells were fixed with BD Fix Solution I for 30 minutes prior to resuspension in pH-specific buffers and reading on the cytometer (BD Fortessa).

[15] = molecular target: T3, human CTLA-4 on 58 α-β-CTLA-4/CD3 ζ …; assay: cell-based or functional assay; remark: listed apart in the source
[16] = molecular target: T3, human CTLA-4 on 58 α-β-CTLA-4/CD3 ζ …; assay: flow cytometry, non-fucosylated IgG1 on 58αβ-CTLA4/mCD3ζ cells, pH 7.2
Method: as §4

[17] = molecular target: T3, human CTLA-4 on 58 α-β-CTLA-4/CD3 ζ …; assay: flow cytometry, non-fucosylated IgG1 on 58αβ-CTLA4/mCD3ζ cells, pH 6.7
Method: as §4

[18] = molecular target: T3, human CTLA-4 on 58 α-β-CTLA-4/CD3 ζ …; assay: cell-based or functional assay; remark: listed apart in the source
[19] = molecular target: T3, human CTLA-4 on 58 α-β-CTLA-4/CD3 ζ …; assay: flow cytometry (APC mean FI), Fab on 58αβ-CTLA4/mCD3ζ cells, pH 6.2
Method: as §4
The experimental protocol was the same as used to obtain the data of FIGS. 16A-C.

B1: ipi.25 Fab (Fab, V domains shown)
VH: QVQLVESGGGVVQPGRSLRLSCAASGFTFSSYTMHWVRQAPGKGLEWVTFISYDGNNKYYADSVKGRFTISRDNSKNTLYLQMNSLRAEDTAIYYCARTGWLGPFDYWGQGTLVTVSS
VL: not shown
notes: Tested as monovalent Fab; also called LCDR1 S28E/S31D; LCDR1 S27aE/S30D (Kabat)
In the case of B1, the “KD 7.4/6 (APBP)” value (monomeric human CTLA-4 [1]) is reported as 4, the “ka 6/7.4” value (monomeric human CTLA-4 [1]) is reported as 1.7 and the “kd 7.4/6” value (monomeric human CTLA-4 [1]) is reported as 2.3. It also gave a Kd (monomeric human CTLA-4 [2]) of 37 nM, a koff (monomeric human CTLA-4 [2]) of 0.017 s⁻¹ and a kon (monomeric human CTLA-4 [2]) of 460000 M⁻¹ s⁻¹. The “KD 7.4/6 (APBP)” value (monomeric human CTLA-4 [3]) was 4.1, the “ka 6/7.4” value (monomeric human CTLA-4 [3]) was 1.7 and the “t1/2 6/7.4” value (monomeric human CTLA-4 [3]) was 2.4. It also gave a Kd (monomeric human CTLA-4 [4]) of 25 nM, a koff (monomeric human CTLA-4 [4]) of 0.018 s⁻¹ and a kon (monomeric human CTLA-4 [4]) of 720000 M⁻¹ s⁻¹. For the same binder, the “CAPBP (ratio of KD normalized to ipilimumab)” value (monomeric human CTLA-4 [5]) was 6.3, the Kd (monomeric human CTLA-4 [6]) was 6.2 nM and the koff (monomeric human CTLA-4 [6]) was 0.0077 s⁻¹. The kon (monomeric human CTLA-4 [6]) was 1.2e+06 M⁻¹ s⁻¹, the Kd (monomeric human CTLA-4 [7]) was 7.4 nM and the koff (monomeric human CTLA-4 [7]) was 0.0074 s⁻¹. The kon (monomeric human CTLA-4 [7]) was 1e+06 M⁻¹ s⁻¹, the “ratio of KD (7.4/6.0) normalized to the ratio of ipilimumab” value (monomeric human CTLA-4 [8]) was 4 and the Kd (monomeric human CTLA-4 [9]) was 6.2 nM. For the same binder, the kon (monomeric human CTLA-4 [9]) was 1.2e+06 M⁻¹ s⁻¹, the “t1/2” value (monomeric human CTLA-4 [9]) was 1.5 min and the Kd (monomeric human CTLA-4 [10]) was 25 nM. For the same binder, the kon (monomeric human CTLA-4 [10]) was 720000 M⁻¹ s⁻¹, the “t1/2” value (monomeric human CTLA-4 [10]) was 0.65 min and the “ratio of KD (7.4/6.0) normalized to the ratio of ipilimumab” value (monomeric human CTLA-4 [11]) was 6.3. For the same binder, the “KD 7.4/6 (APBP)” value (monomeric human CTLA-4 [12]) was 5, the “ka 6/7.4” value (monomeric human CTLA-4 [12]) was 2.2 and the “kd 7.4/6” value (monomeric human CTLA-4 [12]) was 2.3.

B2: ipi.64 Fab (Fab, V domains shown)
VH: B1 VH with S31H
VL: not shown
notes: Tested as monovalent Fab; also called IPI.64 mutant fab; LCDR1 S28E/S31D and HCDR1 S31H
With B2 the “KD 7.4/6 (APBP)” value (monomeric human CTLA-4 [3]) was 13, the “ka 6/7.4” value (monomeric human CTLA-4 [3]) was 1.8 and the “t1/2 6/7.4” value (monomeric human CTLA-4 [3]) was 7.6. For the same binder, the binding result (monomeric cyno CTLA-4) was “binds”, the “CAPBP (ratio of KD normalized to ipilimumab)” value (monomeric human CTLA-4 [5]) was 27.2 and the Kd (monomeric human CTLA-4 [9]) was 2.7 nM. For the same binder, the kon (monomeric human CTLA-4 [9]) was 1.4e+06 M⁻¹ s⁻¹, the “t1/2” value (monomeric human CTLA-4 [9]) was 3.03 min and the Kd (monomeric human CTLA-4 [10]) was 37 nM. The kon (monomeric human CTLA-4 [10]) was 780000 M⁻¹ s⁻¹ and the “t1/2” value (monomeric human CTLA-4 [10]) was 0.417 min.

B3: ipi.100, non-fucosylated IgG1 (antibody, V domains shown)
VH: B1 VH with S31H
VL: not shown
modifications: non-fucosylated N-linked glycan
notes: Non-fucosylated full-length human IgG1; also called Ipi.100 IgG1-NF
With B3 the “IC50 (read off the curve), mIL-2 secretion, 58αβ-hCTLA/mCD3ζ:rhB7-1 blocking assay, 18 h, pH 7.2” value [13] was roughly 1 nM, the “Cmax (MFI)” value [14] was 122000 MFI and the EC50 [14] was 2.94 nM. The “IC50 (read off the curve), mIL-2 secretion, 58αβ-hCTLA/mCD3ζ:rhB7-1 blocking assay, 18 h, pH 6.8” value [15] was roughly 1 nM, the “Cmax (MFI)” value [16] was 125000 MFI and the EC50 [16] was 2.8 nM. The “Cmax (MFI)” value [17] was 126000 MFI, the EC50 [17] was 2.85 nM and the “IC50 (read off the curve), mIL-2 secretion, 58αβ-hCTLA/mCD3ζ:rhB7-1 blocking assay, 18 h, pH 7.0” value [18] was roughly 1 nM.

B4: ipi.100 Fab (Fab, V domains shown)
VH: B1 VH with S31H
VL: not shown
notes: Tested as monovalent Fab
B4 was tested, and the “KD 7.4/6 (APBP)” value (monomeric human CTLA-4 [3]) was 17, the “ka 6/7.4” value (monomeric human CTLA-4 [3]) was 2.1 and the “t1/2 6/7.4” value (monomeric human CTLA-4 [3]) was 8.8. For the same binder, the binding result (monomeric cyno CTLA-4) was “binds”, the “EC50 (read off the curve)” value [19] was roughly 0.1 µg/mL and the Kd (monomeric human CTLA-4 [9]) was 2.5 nM. For the same binder, the kon (monomeric human CTLA-4 [9]) was 940000 M⁻¹ s⁻¹, the “t1/2” value (monomeric human CTLA-4 [9]) was 4.82 min and the Kd (monomeric human CTLA-4 [10]) was 46 nM. For the same binder, the kon (monomeric human CTLA-4 [10]) was 460000 M⁻¹ s⁻¹ and the “t1/2” value (monomeric human CTLA-4 [10]) was 0.55 min.
